Test [1] addresses T1, Human PD-1 on the cell surface (human, UniProt Q15116 25-288). Description: cell-based or functional assay.
For test [2], the target named is T1, Human PD-1 on the cell surface. Put plainly: cell-based or functional assay. This is another data set of the same source.
The target of test [3] is T2, Cynomolgus monkey PD-1 (SPR analyte/ligand; cynomolgus monkey PD-1 Fc fusion) (cynomolgus monkey, UniProt B0LAJ3 25-170).
T2 construct: also called Cyno PD-1
Description: SPR. In general terms: Surface plasmon resonance follows binding to a sensor surface in real time, without labels.

The target of test [4] is T3, Human PD-1 (SPR analyte/ligand; human PD-1 Fc fusion) (human, UniProt Q15116 25-167, limits assumed).
T3 construct: not shown: Fc part of the fusion
Put plainly: SPR.

Test [5] addresses T1, Human PD-1 on the cell surface. Description: flow cytometry on CHO-K1 cells expressing human PD-1.
The target in test [6] is T4, Cynomolgus monkey PD-1 expressed on CHO-K1 cells (cynomolgus monkey, UniProt B0LAJ3 25-288).
T4 construct: also called Cyno PD-1; cell surface cynomolgus PD-1
Description: flow cytometry on CHO-K1 cells expressing cynomolgus monkey PD-1.

These results are taken from patent US20230111418A1 (TESARO, published 2023).

T2 sequence (B0LAJ3 entry or part of it limits assumed): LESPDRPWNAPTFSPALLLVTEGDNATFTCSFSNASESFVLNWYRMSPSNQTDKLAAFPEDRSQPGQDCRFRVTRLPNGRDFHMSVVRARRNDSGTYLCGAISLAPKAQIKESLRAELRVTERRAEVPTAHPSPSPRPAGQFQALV
T1 sequence (Q15116 25-288): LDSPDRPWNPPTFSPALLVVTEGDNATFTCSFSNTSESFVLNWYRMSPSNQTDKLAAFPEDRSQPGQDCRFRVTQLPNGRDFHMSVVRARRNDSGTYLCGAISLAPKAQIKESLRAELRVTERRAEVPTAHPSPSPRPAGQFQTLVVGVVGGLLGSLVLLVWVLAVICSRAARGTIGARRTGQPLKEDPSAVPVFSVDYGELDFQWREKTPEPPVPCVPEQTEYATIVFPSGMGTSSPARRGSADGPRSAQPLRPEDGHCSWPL
T3 sequence (Q15116 25-167 limits assumed): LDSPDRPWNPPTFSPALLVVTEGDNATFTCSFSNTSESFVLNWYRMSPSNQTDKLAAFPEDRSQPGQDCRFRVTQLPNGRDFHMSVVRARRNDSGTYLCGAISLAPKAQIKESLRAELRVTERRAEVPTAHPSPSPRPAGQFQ
T4 sequence (B0LAJ3 entry or part of it limits assumed): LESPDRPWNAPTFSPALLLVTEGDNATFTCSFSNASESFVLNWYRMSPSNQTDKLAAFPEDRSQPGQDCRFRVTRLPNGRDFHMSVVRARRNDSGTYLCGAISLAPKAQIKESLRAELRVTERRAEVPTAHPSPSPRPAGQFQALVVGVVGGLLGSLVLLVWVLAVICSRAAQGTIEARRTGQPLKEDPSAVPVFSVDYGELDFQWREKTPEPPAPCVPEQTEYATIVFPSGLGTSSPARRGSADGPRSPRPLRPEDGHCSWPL

B1: exemplary humanized monoclonal anti-PD-1 antibody (human IGHG4*01 heavy chain with Ser to Pro hinge mutation at S228, human IGKC*01 kappa light chain; CDRs SEQ … (antibody, human IgG4 S228P, kappa, V domains shown)
VH: EVQLLESGGGLVQPGGSLRLSCAASGFTFSSYDMSWVRQAPGKGLEWVSTISGGGSYTYYQDSVKGRFTISRDNSKNTLYLQMNSLRAEDTAVYYCASPYYAMDYWGQGTTVTVSS
VL: DIQLTQSPSFLSAYVGDRVTITCKASQDVGTAVAWYQQKPGKAPKLLIYWASTLHTGVPSRFSGSGSGTEFTLTISSLQPEDFATYYCQHYSSYPWTFGQGTKLEIKR
modifications: N-glycosylation at asparagine residue 293 (SEQ ID NO: 3)
In the case of B1, in test [1], the “IL-2 stimulation ratio in fRO assay, 1 mg/kg, Baseline (n=6)” value amounted to 1.69 ratio; the “IL-2 stimulation ratio in fRO assay, 1 mg/kg, Day 3 (n=6)” value came out at 1.01 ratio; the “IL-2 stimulation ratio in fRO assay, 1 mg/kg, Day 15 (n=6)” value turned out to be 1 ratio; the “IL-2 stimulation ratio in fRO assay, 1 mg/kg, Day 22 (n=2)” value stood at 1.32 ratio. In test [1], the “IL-2 stimulation ratio in fRO assay, 1 mg/kg, Day 29 (n=2)” value is 1.08 ratio; the “IL-2 stimulation ratio in fRO assay, 3 mg/kg, Baseline (n=3)” value is 1.62 ratio; the “IL-2 stimulation ratio in fRO assay, 3 mg/kg, Day 3 (n=3)” value stood at 0.927 ratio; the “IL-2 stimulation ratio in fRO assay, 3 mg/kg, Day 15 (n=3)” value is 0.977 ratio. In addition, in test [1], the “IL-2 stimulation ratio in fRO assay, 10 mg/kg, Baseline (n=4)” value is 1.86 ratio; the “IL-2 stimulation ratio in fRO assay, 10 mg/kg, Day 3 (n=3)” value was 1.05 ratio; the “IL-2 stimulation ratio in fRO assay, 10 mg/kg, Day 15 (n=1)” value is 0.86 ratio. Also, in test [2], the “mean IL-2 stimulation ratio in fRO assay, Day 3, across all dose levels” value is 1 ratio.

B2: PD-1-binding agent (comprising SEQ ID NOs: 1 and 2) (antibody, V domains shown)
VH: EVQLLESGGGLVQPGGSLRLSCAASGFTFSSYDMSWVRQAPGKGLEWVSTISGGGSYTYYQDSVKGRFTISRDNSKNTLYLQMNSLRAEDTAVYYCASPYYAMDYWGQGTTVTVSS
VL: DIQLTQSPSFLSAYVGDRVTITCKASQDVGTAVAWYQQKPGKAPKLLIYWASTLHTGVPSRFSGSGSGTEFTLTISSLQPEDFATYYCQHYSSYPWTFGQGTKLEIKR
notes: It is probably the same humanized IgG4 (S228P)/kappa antibody as m2
Turning to B2, in test [3], the dissociation constant (Kd) – broadly, the constant that tells how readily two partners part at equilibrium – was 0.53 nM; the koff – broadly, a measure of how fast the partners let go of each other – was 0.00023 s⁻¹; the kon (in general, the rate constant with which the complex forms) was 430000 M⁻¹ s⁻¹. Besides, in test [4], binding was characterised by a dissociation constant (Kd) of 0.3 nM, the koff turned out to be 0.00017 s⁻¹ and the kon turned out to be 570000 M⁻¹ s⁻¹. In addition, a half-maximal response in test [5] (EC50) required 2 nM. In addition, the EC50 (commonly the concentration needed to bring the measured effect to its halfway point) in test [6] stood at 3.4 nM.
